Source: patent publication US20180346932A1

Target: dCas9-GCN4 fusion protein of System 3 (dCas9 with 5 copies of GCN4 peptides, linker of 22 amino acids) (S. pyogenes) (UniProt Q99ZW2)
Experiment: cell-based or functional assay

Sequence of GCN4 peptide antibody (scFv)-superfolder green fluorescent protein (sfGFP)-TET1CD fusion protein (Q8NFU7 1418-2136): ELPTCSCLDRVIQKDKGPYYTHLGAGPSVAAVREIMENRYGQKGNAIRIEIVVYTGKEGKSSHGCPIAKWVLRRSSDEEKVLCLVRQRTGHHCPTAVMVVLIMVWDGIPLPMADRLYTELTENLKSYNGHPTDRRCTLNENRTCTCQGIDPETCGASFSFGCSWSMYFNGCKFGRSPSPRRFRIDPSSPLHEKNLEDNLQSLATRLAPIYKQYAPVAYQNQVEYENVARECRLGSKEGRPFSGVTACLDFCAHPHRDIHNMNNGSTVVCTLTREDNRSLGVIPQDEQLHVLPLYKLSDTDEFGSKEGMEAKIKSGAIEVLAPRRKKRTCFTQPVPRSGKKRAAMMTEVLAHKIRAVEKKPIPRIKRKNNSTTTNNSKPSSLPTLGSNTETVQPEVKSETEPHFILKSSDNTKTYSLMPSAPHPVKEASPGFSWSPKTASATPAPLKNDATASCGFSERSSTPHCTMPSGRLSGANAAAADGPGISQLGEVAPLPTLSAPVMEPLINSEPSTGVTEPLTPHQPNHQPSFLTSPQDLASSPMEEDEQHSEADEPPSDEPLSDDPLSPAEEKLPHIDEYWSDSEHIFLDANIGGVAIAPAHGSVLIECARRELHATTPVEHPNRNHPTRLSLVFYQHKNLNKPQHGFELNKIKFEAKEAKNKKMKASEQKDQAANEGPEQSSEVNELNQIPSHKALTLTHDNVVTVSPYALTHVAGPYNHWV

“GCN4 peptide antibody (scFv)-superfolder green fluorescent protein (sfGFP)-TET1CD fusion protein (from UniProt Q8NFU7 1418-2136)” was tested, and the demethylation of the Gfap STAT3 site in ESCs (COBRA, standardized demethylation percentage) was 43%.
